The record followed here is patent US20250017968A1 (CHINA MEDICAL UNIVERSITY, published 2025).

Assay [1] addresses T1, full-length human EphA10 expressed on NIH 3T3 cells (human, UniProt Q5JZY3 34-1008).
T1 construct: whole, on cells
T1 sequence (looked up): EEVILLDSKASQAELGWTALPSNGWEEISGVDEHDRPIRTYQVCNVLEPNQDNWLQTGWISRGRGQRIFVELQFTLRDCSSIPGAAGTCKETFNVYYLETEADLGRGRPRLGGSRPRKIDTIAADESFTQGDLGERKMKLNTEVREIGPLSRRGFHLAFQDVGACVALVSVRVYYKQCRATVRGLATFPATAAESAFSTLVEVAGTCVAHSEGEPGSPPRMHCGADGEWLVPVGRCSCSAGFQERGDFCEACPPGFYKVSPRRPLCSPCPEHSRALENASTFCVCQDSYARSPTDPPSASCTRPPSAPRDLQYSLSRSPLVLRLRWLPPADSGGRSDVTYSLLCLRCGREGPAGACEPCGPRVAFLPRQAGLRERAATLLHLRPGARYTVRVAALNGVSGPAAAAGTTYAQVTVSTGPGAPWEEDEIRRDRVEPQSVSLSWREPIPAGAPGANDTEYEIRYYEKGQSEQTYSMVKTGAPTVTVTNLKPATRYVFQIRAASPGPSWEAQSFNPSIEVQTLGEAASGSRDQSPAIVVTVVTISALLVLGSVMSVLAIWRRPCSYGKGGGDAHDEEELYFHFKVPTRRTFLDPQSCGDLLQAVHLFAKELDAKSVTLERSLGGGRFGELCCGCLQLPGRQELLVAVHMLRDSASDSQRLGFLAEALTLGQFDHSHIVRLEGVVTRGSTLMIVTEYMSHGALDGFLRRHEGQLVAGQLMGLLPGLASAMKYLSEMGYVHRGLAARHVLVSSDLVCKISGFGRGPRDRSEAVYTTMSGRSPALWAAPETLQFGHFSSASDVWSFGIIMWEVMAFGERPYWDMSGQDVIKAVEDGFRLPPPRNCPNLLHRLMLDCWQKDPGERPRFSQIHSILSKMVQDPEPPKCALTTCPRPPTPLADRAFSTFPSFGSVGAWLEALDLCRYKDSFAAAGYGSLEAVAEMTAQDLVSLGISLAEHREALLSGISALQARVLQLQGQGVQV
Briefly: FACS on NIH 3T3 cells expressing full-length human EphA10.

Assay [2] concerns the target T2, EphA10 antigen (R&D systems) (Homo sapiens (Human), UniProt Q5JZY3 34-565).
T2 construct: Coated antigen in the indirect ELISA; The Biacore assay says only 'EphA 10' without source or form; also called ephrin type-A receptor 10
T2 sequence: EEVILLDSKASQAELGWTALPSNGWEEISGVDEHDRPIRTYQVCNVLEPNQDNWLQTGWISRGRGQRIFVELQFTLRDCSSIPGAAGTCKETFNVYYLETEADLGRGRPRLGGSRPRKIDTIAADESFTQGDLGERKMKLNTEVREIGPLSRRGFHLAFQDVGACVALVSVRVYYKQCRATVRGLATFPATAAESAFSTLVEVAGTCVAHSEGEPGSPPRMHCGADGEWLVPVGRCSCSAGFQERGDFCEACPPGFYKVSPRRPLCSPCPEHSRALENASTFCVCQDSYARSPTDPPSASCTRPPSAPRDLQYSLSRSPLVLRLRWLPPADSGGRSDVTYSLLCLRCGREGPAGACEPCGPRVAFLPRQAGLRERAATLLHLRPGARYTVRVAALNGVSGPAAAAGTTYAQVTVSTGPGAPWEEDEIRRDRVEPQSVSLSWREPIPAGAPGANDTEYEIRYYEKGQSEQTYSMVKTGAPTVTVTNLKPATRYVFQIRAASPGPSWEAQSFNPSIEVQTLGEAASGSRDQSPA
The assay can be described thus: indirect ELISA on coated EphA antigen, ScFv-mouse IgG2a antibody titrated. As to the method: ScFv sequences were fused with mouse IgG2a sequence and sub-cloned into pcDNA3.1 plasmid. Three ScFv-mouse IgG2a plasmids were transfected into HEK293 cells. Three ScFv-mouse IgG2a antibodies were purified by protein A resin. Three antibodies were tested for indirect ELISA against coated 9 EPHA antigens (EphA1-8 and 10, R&D systems).

The target of assay [3] is T2, EphA10 antigen (R&D systems). Briefly: Biacore 8K SPR, global fit to 1:1 binding model, triplicates. The text has this: CMU #13 was also subjected to a Biacore assay.

B1: CMU #13 scFv (clone from human B cell-derived scFv phage display library) (scFv)
scFv: QVQLVQSGAEVKKPGSSVKVSCKASGGTFSSYAISWVRQAPGQGLEWMGGIIPIFGTANYAQKFQGRVTITADESTSTAYMELSSLRSEDTAVYYCAREGDSYGYYYGMDVWGQGTTVTVSSGGGGSGGGGSGGGGSQPVLTQPPSASGTPGQRVTISCSGSSSNIGSNYVYWYQQLPGTAPKLLIYENYLRPSGVPDRFSGSKTGTSASLAISGLQSEDEADYYCAAWDDSLNGYVFGTGTQLTVLS
For the molecule B1, the binding result in assay [1] is given as “binds”.

B2: CMU #13 ScFv-mouse IgG2a antibody (Fc fusion)
chain: QVQLVQSGAEVKKPGSSVKVSCKASGGTFSSYAISWVRQAPGQGLEWMGGIIPIFGTANYAQKFQGRVTITADESTSTAYMELSSLRSEDTAVYYCAREGDSYGYYYGMDVWGQGTTVTVSSGGGGSGGGGSGGGGSQPVLTQPPSASGTPGQRVTISCSGSSSNIGSNYVYWYQQLPGTAPKLLIYENYLRPSGVPDRFSGSKTGTSASLAISGLQSEDEADYYCAAWDDSLNGYVFGTGTQLTVLSEPRGPTIKPCPPCKCPAPNLLGGPSVFIFPPKIKDVLMISLSPIVTCVVVDVSEDDPDVQISWFVNNVEVHTAQTQTHREDYNSTLRVVSALPIQHQDWMSGKEFKCKVNNKDLPAPIERTISKPKGSVRAPQVYVLPPPEEEMTKKQVTLTCMVTDFMPEDIYVEWTNNGKTELNYKNTEPVLDSDGSYFMYSKLRVEKKNWVERNSYSCSVVHEGLHNHHTTKSFSRTPGK
notes: The Biacore assay names only 'CMU #13'; also called anti-EphA10 antibody CMU #13
With B2, the “EC50 (read off the curve)” value in assay [2] is about 0.4 nM. In assay [3], this molecule yielded a Kd of 1.79 nM, a koff of 0.00288 s⁻¹ and a kon of 1.61e+06 M⁻¹ s⁻¹.
